The chains are these.
B1: TBC1D10A (parent)
chain: WCLVQICEKYLPGYYSEKLEAIQL
B2: SMTNL2 (parent)
chain: AFTMAENLANCERLIEVEDMMVMG
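Further: lentivirally expressed fusions sorted by FACS into six bins by GFP to DsRed ratio, PSI derived from sequencing read proportions per bin multiplied by bin number.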

In the first data set the parent is B1. Nature of the data set: protein stability index of a GFP-peptide fusion (GPS, HEK-293T) (PSI 1-6); higher = more stable. The following applies: c terminus: a fixed tail appended.
For WCLVQICEKYLPGYYSEKLEAIQF, the protein stability index was found to be 3.24.
In the case of WCLVQICEKYLPGYYSEKLEAIQK, the protein stability index was 3.14.
As to WCLVQICEKYLPGYYSEKLEAIQV, the protein stability index was found to be 2.38.
For the variant WCLVQICEKYLPGYYSEKLEAIQW, the protein stability index was 2.98.
Still for that read-out and setting: the figure for WCLVQICEKYLPGYYSEKLEAIQH is 1.14; for WCLVQICEKYLPGYYSEKLEAIQA it is 3.

In another data set the parent is B2. The description is as above. Particulars: c terminus: a fixed tail appended.
As for AFTMAENLANCERLIEVEDMMAMG, the protein stability index came out at 2.05.
AFTMAENLANCERLIEVEDMMTMG: the protein stability index is 2.25.
As for AFTMAENLANCERLIEVEDMMKMG, the protein stability index was determined as 2.87.
The same measure, in the same setting: in the case of AFTMAENLANCERLIEVEDLMVMG it was 1.9; in that of AFTMAENLANCERLIEVEDQMVMG, 2.72.
For the variant AFTMAENLANCERLIEVEDAMVMG, the protein stability index turned out to be 2.42.
On the same count and under the same terms, in the case of AFTMAENLANCERLIEVEDCMVMG it was 2.74; in that of AFTMAENLANCERLIRVEDMMVMG, 1.83.
Take AFTMAENLANCERLIQVEDMMVMG: the protein stability index worked out at 1.48.
With AFTMAENLANCERLIYVEDMMVMG, the protein stability index was determined as 1.94.
Turning to AFTMAENLANCERLIFVEDMMVMG, the protein stability index came to 2.14.
As for AFTMAENLANCERLIHVEDMMVMG, the protein stability index came out at 1.97.
Regarding AFTMAENLANCERLIGVEDMMVMG, the protein stability index was found to be 2.62.
Take AFTMAENLANCERLIEVRDMMVMG: the protein stability index came out at 2.67.
Take AFTMAENLANCERLIEVYDMMVMG: the protein stability index was determined as 3.52.
As for AFTMAENLANCERLIEVNDMMVMG, the protein stability index stood at 3.43.
For the variant AFTMAENLANCERLIEVSDMMVMG, the protein stability index is 2.01.
As to AFTMAENLAWCERLIEVEDMMVMG, the protein stability index was found to be 1.68.
Take AFTMAENLALCERLIEVEDMMVMG: the protein stability index worked out at 1.64.
AFTMAENLAVCERLIEVEDMMVMG: the protein stability index turned out to be 2.
Turning to AFTMAENLAMCERLIEVEDMMVMG, the protein stability index came out at 2.1.
As to AFTMAENLASCERLIEVEDMMVMG, the protein stability index amounted to 2.42.
In the case of AFTMAENLANCERLIEVEAMMVMG, the protein stability index was 2.36.
As to AFTMAENLANCERLIEVEKMMVMG, the protein stability index was found to be 3.26.
As for AFTDAENLANCERLIEVEDMMVMG, the protein stability index was 4.08.
Consider AFTEAENLANCERLIEVEDMMVMG, for which the protein stability index turned out to be 4.4.
Regarding AFTAAENLANCERLIEVEDMMVMG, the protein stability index stood at 4.14.
With AFTVAENLANCERLIEVEDMMVMG, the protein stability index was 3.18.
In the case of AFTPAENLANCERLIEVEDMMVMG, the protein stability index came out at 3.74.
As to AFTMAENLANCERLIEVEDMMVHG, the protein stability index was 2.24.
Still for that read-out and setting: the figure for AFTMAENLANCERLIEVEDMMVCG is 2.09; for AFTMAENLANCERLIEVEDMMVFG it is 1.54; for AFTMAKNLANCERLIEVEDMMVMG it is 1.77.
Take AFTMAENLANCERLIEVEDMMVMM: the protein stability index came to 1.96.
For AFTMAENLANCERLIEVEDMMVMP, the protein stability index amounted to 2.07.
In the case of AFTMAENLANCERLIEVEDMMVMV, the protein stability index was 1.03.
Take AFTMAENLANCERLIEVEDMQVMG: the protein stability index was determined as 3.
On to AFTMAENLANLERLIEVEDMMVMG, for which the protein stability index was 2.32.
The same measure, in the same setting: the figure for AFTMAENLANAERLIEVEDMMVMG is 2.21; for AFTMAENLANNERLIEVEDMMVMG it is 3.92; for AFTMAENLANVERLIEVEDMMVMG it is 2.75.
With AFTMAENLANQERLIEVEDMMVMG, the protein stability index is 4.09.
For AFTMAENLLNCERLIEVEDMMVMG, the protein stability index was found to be 2.06.
Consider AFTMAENLRNCERLIEVEDMMVMG, for which the protein stability index is 2.31.
For ASTMAENLANCERLIEVEDMMVMG, the protein stability index was 3.49.
With ATTMAENLANCERLIEVEDMMVMG, the protein stability index amounted to 3.88.
Turning to AHTMAENLANCERLIEVEDMMVMG, the protein stability index was 3.48.
As for AFDMAENLANCERLIEVEDMMVMG, the protein stability index was 2.85.
For the variant AFMMAENLANCERLIEVEDMMVMG, the protein stability index was determined as 1.96.
Same read-out and setting: the figure for AFYMAENLANCERLIEVEDMMVMG is 2.06.
In the case of AFIMAENLANCERLIEVEDMMVMG, the protein stability index was 1.72.
Regarding AFQMAENLANCERLIEVEDMMVMG, the protein stability index is 2.13.
Turning to AFTMAENLANCERLIEAEDMMVMG, the protein stability index was determined as 2.54.
For the variant AFTMAENLANCERLIEQEDMMVMG, the protein stability index worked out at 2.43.
Turning to AFTMAENLANCERLIELEDMMVMG, the protein stability index amounted to 3.28.
In the case of AFTMAENLANCERLIEREDMMVMG, the protein stability index is 2.88.
On to AFTMAENLANCERLIEEEDMMVMG, for which the protein stability index was 2.97.
The same measure, in the same setting: in the case of AFTMVENLANCERLIEVEDMMVMG it was 2.03; in that of AFTMTENLANCERLIEVEDMMVMG, 2.83.
Consider AFTMSENLANCERLIEVEDMMVMG, for which the protein stability index stood at 2.55.
On to AFTMGENLANCERLIEVEDMMVMG, for which the protein stability index amounted to 3.11.
Turning to PFTMAENLANCERLIEVEDMMVMG, the protein stability index worked out at 3.16.
Regarding GFTMAENLANCERLIEVEDMMVMG, the protein stability index worked out at 1.74.
For the variant NFTMAENLANCERLIEVEDMMVMG, the protein stability index was 2.44.
Take TFTMAENLANCERLIEVEDMMVMG: the protein stability index was determined as 1.81.
Same read-out and setting: in the case of CFTMAENLANCERLIEVEDMMVMG it was 1.74; in that of AFTMAENLANCVRLIEVEDMMVMG, 1.8.
Turning to AFTMAENLANCIRLIEVEDMMVMG, the protein stability index was found to be 2.73.
On the same count and under the same terms, the figure for AFTMAENLANCNRLIEVEDMMVMG is 2.93; for AFTMAENLANCMRLIEVEDMMVMG it is 2.54.
Still for that read-out and setting: in the case of AFTMAEDLANCERLIEVEDMMVMG it was 3.11; in that of AFTMAEILANCERLIEVEDMMVMG, 2.05; in that of AFTMAEELANCERLIEVEDMMVMG, 2.21.
As to AFTMAENNANCERLIEVEDMMVMG, the protein stability index worked out at 3.79.
Turning to AFTMAENSANCERLIEVEDMMVMG, the protein stability index turned out to be 4.28.
On the same count and under the same terms, the figure for AFTMAENQANCERLIEVEDMMVMG is 4.06; for AFTMAENLANCERLAEVEDMMVMG it is 4; for AFTMAENLANCERLSEVEDMMVMG it is 3.6.
AFTMAENLANCERLMEVEDMMVMG: the protein stability index was 3.
As to AFTMAENLANCERLLEVEDMMVMG, the protein stability index came out at 2.82.
Turning to AFTMAENLANCERLGEVEDMMVMG, the protein stability index stood at 3.77.
Turning to AFTMAENLANCERFIEVEDMMVMG, the protein stability index worked out at 2.62.
Same read-out and setting: in the case of AFTMAENLANCERTIEVEDMMVMG it was 3.5; in that of AFTMAENLANCERYIEVEDMMVMG, 2.13.
For the variant AFTMAENLANCERIIEVEDMMVMG, the protein stability index came out at 1.87.
Still for that read-out and setting: in the case of AFTMAENLANCEWLIEVEDMMVMG it was 2.42; in that of AFTMAENLANCELLIEVEDMMVMG, 3.24; in that of AFTMAENLANCEELIEVEDMMVMG, 3.96.

The values are drawn from the supplement of paper PMC10567573.
